Results reported in patent publication US20250171562A1.

B1: CIgG4F3A1(G4S)1 (Fc fusion)
chain 1: GPPCPPCPAPEFLGGPSVFLFPPKPKDTLMISRTPEVTCVVVDVSQEDPEVQFNWYVDGVEVHNAKTKPREEQFNSTYRVVSVLTVLHQDWLNGKEYKCKVSNKGLPSSIEKTISKAKGQPREPQVYTLPPCQEEMTKNQVSLWCLVKGFYPSDIAVEWESNGQPENNYKTTPPVLDSDGSFFLYSRLTVDKSRWQEGNVFSCSVMHEALHNHYTQKSLSLSLGKGGGGSDVQLQESGGGLVQAGGSLKLSCAASRGSLSRWDVAWFRQAPGKERSFVTRISWSGTTSYYADAVKGRFAISRDNAKNTVYLQMNSLKPEDTAVYYCAVALYGNRGYYDVNAHSYWGQGTQVTVS
chain 2: GPPCPPCPAPEFLGGPSVFLFPPKPKDTLMISRTPEVTCVVVDVSQEDPEVQFNWYVDGVEVHNAKTKPREEQFNSTYRVVSVLTVLHQDWLNGKEYKCKVSNKGLPSSIEKTISKAKGQPREPQVCTLPPSQEEMTKNQVSLSCAVKGFYPSDIAVEWESNGQPENNYKTTPPVLDSDGSFFLVSRLTVDKSRWQEGNVFSCSVMHEALHNHYTQKSLSLSLGKGGGGSEVQLLESGGGLVQPGGSLRLSCAASGFTFGNYDMAWVRQAPGKRPEWVSSIDTGGDITHYADSVKGRFTISRDNAKNTLYLQMNSLRPEDTAVYWCATDEEYALGPNEFDYYGQGTLVTVSS
B2: CIgG4F3A1(G4S)2 (Fc fusion)
chain 1: GPPCPPCPAPEFLGGPSVFLFPPKPKDTLMISRTPEVTCVVVDVSQEDPEVQFNWYVDGVEVHNAKTKPREEQFNSTYRVVSVLTVLHQDWLNGKEYKCKVSNKGLPSSIEKTISKAKGQPREPQVYTLPPCQEEMTKNQVSLWCLVKGFYPSDIAVEWESNGQPENNYKTTPPVLDSDGSFFLYSRLTVDKSRWQEGNVFSCSVMHEALHNHYTQKSLSLSLGKGGGGSGGGGSDVQLQESGGGLVQAGGSLKLSCAASRGSLSRWDVAWFRQAPGKERSFVTRISWSGTTSYYADAVKGRFAISRDNAKNTVYLQMNSLKPEDTAVYYCAVALYGNRGYYDVNAHSYWGQGTQVTVS
chain 2: GPPCPPCPAPEFLGGPSVFLFPPKPKDTLMISRTPEVTCVVVDVSQEDPEVQFNWYVDGVEVHNAKTKPREEQFNSTYRVVSVLTVLHQDWLNGKEYKCKVSNKGLPSSIEKTISKAKGQPREPQVCTLPPSQEEMTKNQVSLSCAVKGFYPSDIAVEWESNGQPENNYKTTPPVLDSDGSFFLVSRLTVDKSRWQEGNVFSCSVMHEALHNHYTQKSLSLSLGKGGGGSGGGGSEVQLLESGGGLVQPGGSLRLSCAASGFTFGNYDMAWVRQAPGKRPEWVSSIDTGGDITHYADSVKGRFTISRDNAKNTLYLQMNSLRPEDTAVYWCATDEEYALGPNEFDYYGQGTLVTVSS
B3: CIgG4F3A1(G4S)3 (Fc fusion)
chain 1: GPPCPPCPAPEFLGGPSVFLFPPKPKDTLMISRTPEVTCVVVDVSQEDPEVQFNWYVDGVEVHNAKTKPREEQFNSTYRVVSVLTVLHQDWLNGKEYKCKVSNKGLPSSIEKTISKAKGQPREPQVYTLPPCQEEMTKNQVSLWCLVKGFYPSDIAVEWESNGQPENNYKTTPPVLDSDGSFFLYSRLTVDKSRWQEGNVFSCSVMHEALHNHYTQKSLSLSLGKGGGGSGGGGSGGGGSDVQLQESGGGLVQAGGSLKLSCAASRGSLSRWDVAWFRQAPGKERSFVTRISWSGTTSYYADAVKGRFAISRDNAKNTVYLQMNSLKPEDTAVYYCAVALYGNRGYYDVNAHSYWGQGTQVTVS
chain 2: GPPCPPCPAPEFLGGPSVFLFPPKPKDTLMISRTPEVTCVVVDVSQEDPEVQFNWYVDGVEVHNAKTKPREEQFNSTYRVVSVLTVLHQDWLNGKEYKCKVSNKGLPSSIEKTISKAKGQPREPQVCTLPPSQEEMTKNQVSLSCAVKGFYPSDIAVEWESNGQPENNYKTTPPVLDSDGSFFLVSRLTVDKSRWQEGNVFSCSVMHEALHNHYTQKSLSLSLGKGGGGSGGGGSGGGGSEVQLLESGGGLVQPGGSLRLSCAASGFTFGNYDMAWVRQAPGKRPEWVSSIDTGGDITHYADSVKGRFTISRDNAKNTLYLQMNSLRPEDTAVYWCATDEEYALGPNEFDYYGQGTLVTVSS
B4: NIgG4F4A1(RS) (Fc fusion)
chain 1: DVQLQESGGGLVQAGGSLRLSCAVSGLSFSSMGWFRQPPGKEREFVAAISLYSGSTYYADSVKGRFTISSDNAKSTVYLQMNSLKPEDAAVYFCAADRQRTWSTFYASRQATYNYWGQGTQVTVTSRSGPPCPPCPAPEFLGGPSVFLFPPKPKDTLMISRTPEVTCVVVDVSQEDPEVQFNWYVDGVEVHNAKTKPREEQFNSTYRVVSVLTVLHQDWLNGKEYKCKVSNKGLPSSIEKTISKAKGQPREPQVYTLPPCQEEMTKNQVSLWCLVKGFYPSDIAVEWESNGQPENNYKTTPPVLDSDGSFFLYSRLTVDKSRWQEGNVFSCSVMHEALHNHYTQKSLSLSLGK
chain 2: EVQLLESGGGLVQPGGSLRLSCAASGFTFGNYDMAWVRQAPGKRPEWVSSIDTGGDITHYADSVKGRFTISRDNAKNTLYLQMNSLRPEDTAVYWCATDEEYALGPNEFDYYGQGTLVTVSSRSGPPCPPCPAPEFLGGPSVFLFPPKPKDTLMISRTPEVTCVVVDVSQEDPEVQFNWYVDGVEVHNAKTKPREEQFNSTYRVVSVLTVLHQDWLNGKEYKCKVSNKGLPSSIEKTISKAKGQPREPQVCTLPPSQEEMTKNQVSLSCAVKGFYPSDIAVEWESNGQPENNYKTTPPVLDSDGSFFLVSRLTVDKSRWQEGNVFSCSVMHEALHNHYTQKSLSLSLGK
B5: NIgG4F4A1(G4S)1 (Fc fusion)
chain 1: DVQLQESGGGLVQAGGSLRLSCAVSGLSFSSMGWFRQPPGKEREFVAAISLYSGSTYYADSVKGRFTISSDNAKSTVYLQMNSLKPEDAAVYFCAADRQRTWSTFYASRQATYNYWGQGTQVTVTSGGGGSGPPCPPCPAPEFLGGPSVFLFPPKPKDTLMISRTPEVTCVVVDVSQEDPEVQFNWYVDGVEVHNAKTKPREEQFNSTYRVVSVLTVLHQDWLNGKEYKCKVSNKGLPSSIEKTISKAKGQPREPQVYTLPPCQEEMTKNQVSLWCLVKGFYPSDIAVEWESNGQPENNYKTTPPVLDSDGSFFLYSRLTVDKSRWQEGNVFSCSVMHEALHNHYTQKSLSLSLGK
chain 2: EVQLLESGGGLVQPGGSLRLSCAASGFTFGNYDMAWVRQAPGKRPEWVSSIDTGGDITHYADSVKGRFTISRDNAKNTLYLQMNSLRPEDTAVYWCATDEEYALGPNEFDYYGQGTLVTVSSGGGGSGPPCPPCPAPEFLGGPSVFLFPPKPKDTLMISRTPEVTCVVVDVSQEDPEVQFNWYVDGVEVHNAKTKPREEQFNSTYRVVSVLTVLHQDWLNGKEYKCKVSNKGLPSSIEKTISKAKGQPREPQVCTLPPSQEEMTKNQVSLSCAVKGFYPSDIAVEWESNGQPENNYKTTPPVLDSDGSFFLVSRLTVDKSRWQEGNVFSCSVMHEALHNHYTQKSLSLSLGK
B6: NIgG4F4A1(G4S)2 (Fc fusion)
chain 1: DVQLQESGGGLVQAGGSLRLSCAVSGLSFSSMGWFRQPPGKEREFVAAISLYSGSTYYADSVKGRFTISSDNAKSTVYLQMNSLKPEDAAVYFCAADRQRTWSTFYASRQATYNYWGQGTQVTVTSGGGGSGGGGSGPPCPPCPAPEFLGGPSVFLFPPKPKDTLMISRTPEVTCVVVDVSQEDPEVQFNWYVDGVEVHNAKTKPREEQFNSTYRVVSVLTVLHQDWLNGKEYKCKVSNKGLPSSIEKTISKAKGQPREPQVYTLPPCQEEMTKNQVSLWCLVKGFYPSDIAVEWESNGQPENNYKTTPPVLDSDGSFFLYSRLTVDKSRWQEGNVFSCSVMHEALHNHYTQKSLSLSLGK
chain 2: EVQLLESGGGLVQPGGSLRLSCAASGFTFGNYDMAWVRQAPGKRPEWVSSIDTGGDITHYADSVKGRFTISRDNAKNTLYLQMNSLRPEDTAVYWCATDEEYALGPNEFDYYGQGTLVTVSSGGGGSGGGGSGPPCPPCPAPEFLGGPSVFLFPPKPKDTLMISRTPEVTCVVVDVSQEDPEVQFNWYVDGVEVHNAKTKPREEQFNSTYRVVSVLTVLHQDWLNGKEYKCKVSNKGLPSSIEKTISKAKGQPREPQVCTLPPSQEEMTKNQVSLSCAVKGFYPSDIAVEWESNGQPENNYKTTPPVLDSDGSFFLVSRLTVDKSRWQEGNVFSCSVMHEALHNHYTQKSLSLSLGK
B7: NIgG4F4A1(G4S)3 (Fc fusion)
chain 1: DVQLQESGGGLVQAGGSLRLSCAVSGLSFSSMGWFRQPPGKEREFVAAISLYSGSTYYADSVKGRFTISSDNAKSTVYLQMNSLKPEDAAVYFCAADRQRTWSTFYASRQATYNYWGQGTQVTVTSGGGGSGGGGSGGGGSGPPCPPCPAPEFLGGPSVFLFPPKPKDTLMISRTPEVTCVVVDVSQEDPEVQFNWYVDGVEVHNAKTKPREEQFNSTYRVVSVLTVLHQDWLNGKEYKCKVSNKGLPSSIEKTISKAKGQPREPQVYTLPPCQEEMTKNQVSLWCLVKGFYPSDIAVEWESNGQPENNYKTTPPVLDSDGSFFLYSRLTVDKSRWQEGNVFSCSVMHEALHNHYTQKSLSLSLGK
chain 2: EVQLLESGGGLVQPGGSLRLSCAASGFTFGNYDMAWVRQAPGKRPEWVSSIDTGGDITHYADSVKGRFTISRDNAKNTLYLQMNSLRPEDTAVYWCATDEEYALGPNEFDYYGQGTLVTVSSGGGGSGGGGSGGGGSGPPCPPCPAPEFLGGPSVFLFPPKPKDTLMISRTPEVTCVVVDVSQEDPEVQFNWYVDGVEVHNAKTKPREEQFNSTYRVVSVLTVLHQDWLNGKEYKCKVSNKGLPSSIEKTISKAKGQPREPQVCTLPPSQEEMTKNQVSLSCAVKGFYPSDIAVEWESNGQPENNYKTTPPVLDSDGSFFLVSRLTVDKSRWQEGNVFSCSVMHEALHNHYTQKSLSLSLGK
B8: CIgG4F4A1(RS) (Fc fusion)
chain 1: GPPCPPCPAPEFLGGPSVFLFPPKPKDTLMISRTPEVTCVVVDVSQEDPEVQFNWYVDGVEVHNAKTKPREEQFNSTYRVVSVLTVLHQDWLNGKEYKCKVSNKGLPSSIEKTISKAKGQPREPQVYTLPPCQEEMTKNQVSLWCLVKGFYPSDIAVEWESNGQPENNYKTTPPVLDSDGSFFLYSRLTVDKSRWQEGNVFSCSVMHEALHNHYTQKSLSLSLGKRSDVQLQESGGGLVQAGGSLRLSCAVSGLSFSSMGWFRQPPGKEREFVAAISLYSGSTYYADSVKGRFTISSDNAKSTVYLQMNSLKPEDAAVYFCAADRQRTWSTFYASRQATYNYWGQGTQVTVTS
chain 2: GPPCPPCPAPEFLGGPSVFLFPPKPKDTLMISRTPEVTCVVVDVSQEDPEVQFNWYVDGVEVHNAKTKPREEQFNSTYRVVSVLTVLHQDWLNGKEYKCKVSNKGLPSSIEKTISKAKGQPREPQVCTLPPSQEEMTKNQVSLSCAVKGFYPSDIAVEWESNGQPENNYKTTPPVLDSDGSFFLVSRLTVDKSRWQEGNVFSCSVMHEALHNHYTQKSLSLSLGKRSEVQLLESGGGLVQPGGSLRLSCAASGFTFGNYDMAWVRQAPGKRPEWVSSIDTGGDITHYADSVKGRFTISRDNAKNTLYLQMNSLRPEDTAVYWCATDEEYALGPNEFDYYGQGTLVTVSS

These binders were tested against mixture of three Der p 2 specific recombinant human IgE clones H10, H12, P4E (human) (UniProt P01854) (assay: RBL-SX38 IgE displacement, FACS).
Sequence of mixture of three Der p 2 specific recombinant human IgE clones H10, H12, P4E (human) (P01854 other isoform, or with tags, fused parts or gaps): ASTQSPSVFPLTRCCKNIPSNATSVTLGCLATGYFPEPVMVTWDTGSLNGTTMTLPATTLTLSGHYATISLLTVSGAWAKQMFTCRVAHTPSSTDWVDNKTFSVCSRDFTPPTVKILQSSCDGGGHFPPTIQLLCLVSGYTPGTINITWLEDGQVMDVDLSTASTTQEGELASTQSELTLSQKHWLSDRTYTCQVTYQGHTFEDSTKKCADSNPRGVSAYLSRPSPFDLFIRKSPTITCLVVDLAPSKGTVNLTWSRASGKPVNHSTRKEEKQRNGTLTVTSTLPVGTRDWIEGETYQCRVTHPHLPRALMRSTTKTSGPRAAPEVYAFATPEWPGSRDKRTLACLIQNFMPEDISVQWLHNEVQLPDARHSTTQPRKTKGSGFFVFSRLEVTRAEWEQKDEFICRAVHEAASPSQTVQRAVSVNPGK
B1 gave a Max effect/effect 1 µM of 35%. B2 gave a Max effect/effect 1 µM of 0%. B3 was tested, and the Max effect/effect 1 µM was 2%. Binder B4 has an EC50 of 331 nM and a Max effect/effect 1 µM of 74%. B5 showed an EC50 of 21.6 nM and a Max effect/effect 1 µM of 100%. For B6, the EC50 was 21.1 nM and the Max effect/effect 1 µM was 97%. In the case of B7, the EC50 is reported as 44.5 nM and the Max effect/effect 1 µM is reported as 85%. With B8 the EC50 was 1.2 nM and the Max effect/effect 1 µM was 99%.
